Data taken from patent publication US20230313187A1, “MODIFICATIONS OF MAMMALIAN CELLS USING ARTIFICIAL MICRO-RNA TO ALTER THEIR PROPERTIES AND THE COMPOSITIONS OF THEIR PRODUCTS” (DNA TWOPOINTO INC., priority 2020, published 2023).

Assays:
Format in all cases: cell-based
[1] = system: Cricetulus griseus alpha-(1,6)-fucosyl transferase (FUT8) mRNA; assay: Antibody titer and fucosylation with different numbers of amiRNA hairpins in the 3' UTR of the glutamine synthetase selectable marker
Source text: One- two- or three-hairpin amiRNAs were incorporated into the 3′ UTR of a glutamine synthetase selectable marker on a transposon. The multi-hairpin amiRNA with nucleotide sequence SEQ ID NO: 194 comprised three hairpins as described in Section 6.1.1.1.
These amiRNA sequences were placed to the 3′ of an open reading frame encoding a glutamine synthetase protein (with polypeptide sequence SEQ ID NO: 307) and followed by a human globin polyadenylation sequence. The amiRNA genes were cloned into a transposon vector in which they were operably linked to a Pol II promoter. The transposon further comprised genes encoding an antibody with mature light chain polypeptide sequence SEQ ID NO: 286 and mature heavy chain polypeptide sequence SEQ ID NO: 288. The transposon further comprised a left end comprising a 5′-TTAA-3′ target sequence immediately followed by an ITR with nucleotide sequence SEQ ID NO: 423 (which is an embodiment of SEQ ID NO: 421) and additional nucleotide sequence SEQ ID NO: 417 and a right end comprising nucleotide sequence SEQ ID NO: 419 immediately followed by an ITR with nucleotide sequence SEQ ID NO: 424 (which is an embodiment of SEQ ID NO: 422) immediately followed by a 5′-TTAA-3′ target sequence. The transposon was configured so that the multi-hairpin amiRNA, the glutamine synthetase gene and the genes for both antibody chains, as well as all necessary operably linked control elements were transposable by a corresponding transposase.
Transposons were co-transfected with mRNA encoding transposase with polypeptide sequence SEQ ID NO: 472 into a CHO cell line with no functional glutamine synthetase gene. The pool of transfected cells were grown in the absence of glutamine added to the media until their viability reached 95%. They were then grown in a 14 day fed-batch using Sigma Advanced Fed Batch media. Protein was purified from the culture supernatant using protein A affinity chromatography, reduced with dithiothreitol, and analyzed on an Agilent QTOF mass spectrometer. We integrated the area under the peaks at 50,456 Da (corresponding to the heavy chain modified by G0: the conserved heptasaccharide core composed of 2 N-acetylglucosamine, 3 mannose and 2 other N-acetylglucosamine residues that are β-1,2 linked to α-6 mannose and α-3 mannose, forming two arms) and 50,602 (corresponding to the heavy chain modified by G0F: the conserved heptasaccharide core plus a fucose residue) to calculate the relative proportion of fucosylated and afucosylated antibody.
Table 5. Inhibition of antibody fucosylation with different numbers of amiRNA hairpins. Transposons were constructed as described in Section 6.1.2.1. The SEQ ID NO of the amiRNA gene including the glutamine synthetase ORF and the globin polyA sequence is given in column A. The Pol II promoter shown in column B was operably linked to the amiRNA whose SEQ ID NO is shown in column C. The amiRNA comprised the number of hairpins shown in column D. Following a 14-day fed batch antibody production run, the culture supernatant contained the concentration of antibody shown in column E. The percentage of antibody that was afucosylated is shown in column F, the percentage that was fucosylated is shown in column G. BDL=below detection limit.

[2] = system: Cricetulus griseus alpha-(1,6)-fucosyl transferase (FUT8) mRNA; assay: Antibody titer and fucosylation with multi-hairpin amiRNA in the GS 3' UTR driven by different promoters and inhibitory 5' UTRs; conditions: 14 day fed-batch
Source text: The three-hairpin amiRNA with nucleotide sequence SEQ ID NO: 194 was incorporated into the 3′ UTR of a glutamine synthetase selectable marker on a transposon. The amiRNA sequence was placed to the 3′ of an open reading frame encoding a glutamine synthetase protein with polypeptide sequence SEQ ID NO: 307 and was followed by a human globin polyadenylation sequence. The amiRNA gene was cloned into different transposon vectors in which it was operably linked to different Pol II promoters. Each transposon further comprised genes encoding an antibody with mature light chain polypeptide sequence SEQ ID NO: 286 and mature heavy chain polypeptide sequence SEQ ID NO: 288. […]
Transposons were co-transfected with mRNA encoding transposase with polypeptide sequence SEQ ID NO: 472 into a CHO cell line with no functional glutamine synthetase gene. […] Protein was purified from the culture supernatant using protein A affinity chromatography, reduced with dithiothreitol, and analyzed on an Agilent QTOF mass spectrometer. […]

[3] = system: Cricetulus griseus alpha-(1,6)-fucosyl transferase (FUT8) mRNA; assay: CHO pool with amiRNA as host for transient production of afucosylated antibodies; conditions: 7-day transient culture; amiRNA linked to EF1 promoter; FIG. 5B
Source text: The multi-hairpin amiRNA with nucleotide sequence SEQ ID NO: 194 comprised three hairpins with guides complementary to the mRNA for Cricetulus griseus alpha-(1,6)-fucosyl transferase (FUT8), as described in Section 6.1.1.1. The multi-hairpin amiRNA sequence was placed to the 3′ of an open reading frame encoding a red fluorescent protein (with nucleotide sequence SEQ ID NO: 279) and followed by a rabbit globin polyadenylation sequence. The multi-hairpin amiRNA gene was cloned into a Bombyx transposon vector in which it was operably linked to an EF1 promoter (with nucleotide sequence SEQ ID NO: 314). […] It further comprised an open reading frame encoding puromycin selectable marker with polypeptide sequence SEQ ID NO: 302. […]
Transposons were co-transfected with mRNA encoding transposase with polypeptide sequence SEQ ID NO: 502 into a CHO cell line expressing no heterologous antibody sequences. […] Protein was purified from the culture supernatant using protein A affinity chromatography, reduced with dithiothreitol, and analyzed on an Agilent QTOF mass spectrometer. […]

[4] = system: Cricetulus griseus Neu2 mRNA; assay: Sialylation of an Fc fusion protein from CHO cells with Neu2-targeting amiRNA (capillary isoelectric focusing); conditions: 14 day fed-batch; Fc fusion to a growth factor receptor; FIG. 6B vs reference standard
Source text: The multi-hairpin amiRNA was cloned into a piggyBac-like transposon to the 3′ of a spacer polynucleotide with nucleotide sequence SEQ ID NO: 280, and operably linked to a PGK promoter with nucleotide sequence SEQ ID NO: 385. The nucleotide sequence of the multi-hairpin amiRNA gene is given as SEQ ID NO: 593. The piggyBac-like transposon further comprised a selectable marker conferring resistance to puromycin with amino acid sequence SEQ ID NO: 302. The piggyBac-like transposon further comprised a target sequence 5′-TTAA-3′ immediately followed by an ITR with nucleotide sequence SEQ ID NO: 427, immediately followed by further transposon end sequences with nucleotide sequence SEQ ID NO: 425. The piggyBac-like transposon further comprised nucleotide sequence SEQ ID NO: 426, immediately followed by a second ITR with nucleotide sequence SEQ ID NO: 428, immediately followed by the target sequence 5′-TTAA-3′. […]
After the transfected cell pools had recovered to >95% viability, we tested their ability to produce sialylated protein. […] Protein was purified from the culture supernatant using protein A affinity chromatography, reduced with dithiothreitol, and analyzed by capillary isoelectric focusing (cIEF). […]

B1: SEQ ID NO: 194: three-hairpin amiRNA, guides SEQ ID NOs 23, 24, 25 to Cricetulus griseus FUT8 mRNA, unstructured sequences between hairpins (nucleic acid)
chain: ATCTGATCTTCTGAAGAAAATATATTTCTTTTTATTCATAGCTCTTAACTAGTGGTGATAGCAATGTCAGCAGTGCCTGGAAAAACATCCATTCTCATTCGTGAAGCCACAGATGGAATGAGAATAGATGTTTTTCAAAGTAAGGTTGACCATACTCTACTCTAGTTATATTCTTTAGGCACGAATGTGTGTTTAAAAAAAATAAAAACTAGTGGTGATAGCAATGTCAGCAGTGCCTTTAAATTACATAATGTGGCAGTGTGAAGCCACAGATGACTGCCACATCATGTAATTTACAAGTAAGGTTGACCATACTCTACTCTAGAGTTGTGTTTTAATGTATATTAATGTTACTAATGTGTTTACTAGTGGTGATAGCAATGTCAGCAGTGCCTTATTTTACTGTGCATGGGCTTGGTGAAGCCACAGATGCAAGCCCATGAACAGTAAAATCAAGTAAGGTTGACCATACTCTACTCTAGTCAGTTTTATTGATAGTCTTTTCAGTATTATTGATAATCTT
fucosylation of the antibody ([1]; CMV and EEF2 promoter operably linked to the amiRNA): completely eliminated fucosylation of the antibody
antibody titer in the culture supernatant ([1]; CMV promoter): 163 mg/L
antibody titer in the culture supernatant ([1]; EEF2 promoter): 443 mg/L
antibody titer ([1]; weaker (PGK) promoter operably linked to glutamine synthetase, amiRNA in 3' UTR): 835 mg/L
antibody fucosylation ([1]; weaker (PGK) promoter, amiRNA in GS 3' UTR, natural level around 80-85%): completely prevented
antibody fucosylation [2]: completely suppressed
antibody titer [2]: exceeded 3 g/L
antibody fucosylation (G0F peak) [3]: produced only afucosylated antibodies

B2: SEQ ID NO: 568: three-hairpin amiRNA, guides SEQ ID NOs 92, 91, 90 complementary to Cricetulus griseus Neu2 mRNA (nucleic acid)
chain: ATCTGATCTTCTGAAGAAAATATATTTCTTTTTATTCATAGCTCTTAACTAGTGGTGATAGCAATGTCAGCAGTGCCTATGAAGTCTATGAAGAGTCAGGGTGAAGCCACAGATGCCTGACTCTTAATAGACTTCACAAGTAAGGTTGACCATACTCTACTCTAGAGTTGTGTTTTAATGTATATTAATGTTACTAATGTGTTTACTAGTGGTGATAGCAATGTCAGCAGTGCCTTACAAGTTTACTCACTACCTGGGTGAAGCCACAGATGCCAGGTAGTGCGTAAACTTGTCAAGTAAGGTTGACCATACTCTACTCTAGGTTATTTTTAGTATGATTCTGTAAAAATGAATTAATACTAACTAGTGGTGATAGCAATGTCAGCAGTGCCTTAATTTATTAAGACTCATCCAAGTGAAGCCACAGATGTTGGATGAGTATTAATAAATTCAAGTAAGGTTGACCATACTCTACTCTAGTCAGTTTTATTGATAGTCTTTTCAGTATTATTGATAATCTT
sialylation of the produced protein (cIEF glycoform peaks) [4]: substantially reduces the removal of sialic acid from proteins produced by CHO cells
